Experimental data: the supplement of paper PMC9732359
± gives the uncertainty stated by the source.

Experiment: protein stability index of a GFP-peptide fusion (yeast GPS) (PSI 1-4); higher = more stable; sorted into four equal gates, so the index is relative within each strain
In short: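 Sequencing reads from sorted gates were used to score each peptide. The library consisted of tiled 17-residue yeast protein peptides fused downstream of GFP on a Cherry-expressing plasmid, pooled and carried in yeast. Mid-log cultures in leucine-free medium were split into four equal gates by GFP/Cherry ratio, and each gate's plasmids were PCR-amplified and Illumina-sequenced. The protein stability index adds up, over all gates, the read frequency multiplied by the gate number.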

Row | Sequence | protein stability index (doa10∆) | protein stability index (ubr1∆) | protein stability index (pdr5∆) | protein stability index (san1∆)
1 | GQSSVKHEDFVEGISEV [RPT5] | 3.7 ± 0.24 | 3.41 ± 0.2 |  | 
2 | GRDAFHLRVRVHPFHVL [RPL10] | 1.7 ± 0.061 | 2.09 ± 0.048 | 2 ± 0.077 | 1.86 ± 0.11
3 | GRDKHALSLLYHLLNYD [SSN3] | 2.91 ± 0.074 | 3.04 ± 0.064 | 2.92 ± 0.057 | 2.94 ± 0.054
4 | GREGIWSKTIKARTNLH [RPC34] | 1.46 ± 0.12 | 1.51 ± 0.29 | 1.58 ± 0.2 | 
5 | GRICRPLIIVSDGQSRV [RET1] | 2.06 ± 0.045 | 2.16 ± 0.038 | 2.11 ± 0.037 | 1.75 ± 0.059
6 | GRIPLHWSVSFQAHEIT [NAS6] | 2.87 ± 0.057 | 2.69 ± 0.037 | 2.84 ± 0.056 | 2.48 ± 0.073
7 | GRKVLQKVQGESHIDSR [SIR4] | 3.27 ± 0.14 | 3.27 ± 0.09 | 3.33 ± 0.079 | 3.17 ± 0.09
8 | GRNIGHPIIQDKEGNGV [RPB3] | 3.52 ± 0.17 | 3.15 ± 0.13 | 3.24 ± 0.13 | 3.04 ± 0.1
9 | GRNRGRPNRRGPRNTEE [RPS2] | 3.38 ± 0.069 | 3.45 ± 0.083 | 3.24 ± 0.16 | 3.58 ± 0.1
10 | GRRISENGQRDLDRIAA [RPS19A] | 3.76 ± 0.25 | 3.45 ± 0.17 | 3.42 ± 0.14 | 3.4 ± 0.064
11 | GSAELRNSYPASFYSVN [RPN3] | 3.12 ± 0.21 | 3.55 ± 0.092 | 3.15 ± 0.11 | 2.87 ± 0.059
12 | GSEIAISSLGYRSHIFA [SWI3] | 2.63 ± 0.057 | 2.34 ± 0.045 | 2.27 ± 0.048 | 2.45 ± 0.051
13 | GSIEEPELNVSLNLTDD [MCD1] | 3.38 ± 0.058 | 3.39 ± 0.04 | 3.44 ± 0.05 | 3.15 ± 0.064
14 | GSIPVDQVVVRGIDTLQ [RPB3] | 2.14 ± 0.06 | 2.5 ± 0.048 | 2.02 ± 0.076 | 1.89 ± 0.099
15 | GSIQKGMPHKFYQGKTG [RPL21A] | 3.07 ± 0.14 | 2.51 ± 0.28 | 3.06 ± 0.16 | 2.9 ± 0.21
16 | GSIRVHKSGKLSVKIGN [RPC53] | 1.27 ± 0.052 | 1.69 ± 0.04 | 1.44 ± 0.047 | 1.75 ± 0.068
17 | GSKLEDMSKILVDQGFN [RET1] | 3.14 ± 0.066 | 3.29 ± 0.049 | 3.2 ± 0.072 | 3.31 ± 0.034
18 | GSKQADRMAKYLHIRDK [PGD1] | 3.08 ± 0.12 | 3.14 ± 0.071 | 3.3 ± 0.097 | 3.09 ± 0.057
19 | GSLNATNFSPTPANNGE [SNF2] | 2.93 ± 0.055 | 3.04 ± 0.051 | 3.07 ± 0.061 | 2.76 ± 0.049
20 | GSLTFLDNKGSGEDAEE [YIL149C/MLP2] | 3.48 ± 0.27 | 3.46 ± 0.071 | 3.22 ± 0.12 | 3.56 ± 0.12
21 | GSMFSGDNTSDVDMEDR [RRI1] | 2.01 ± 0.14 | 2.85 ± 0.16 | 2.55 ± 0.074 | 2.51 ± 0.12
22 | GSNQKPKYEPPVQSKFG [RPT2] | 2.94 ± 0.13 | 3.09 ± 0.099 | 3 ± 0.15 | 2.34 ± 0.22
23 | GSQILSGVMDKSVLGDG [RPO31] | 3.49 ± 0.12 | 3.55 ± 0.067 | 3.28 ± 0.12 | 3.41 ± 0.068
24 | GSRTTTNHVLEVFSVLG [RPO31] | 2.93 ± 0.13 |  | 2.76 ± 0.14 | 
25 | GSSAGMNGRSLTYAQQQ [SNF6] | 2.99 ± 0.083 | 3.24 ± 0.044 | 3.15 ± 0.081 | 3.03 ± 0.058
26 | GSSNKAVVQTVKGLLNT [YJL039C/NUP192] | 3.27 ± 0.14 | 3.07 ± 0.098 | 3.13 ± 0.11 | 2.59 ± 0.11
27 | GSVIQTHIAESAKEIAK [MCD1] | 2.91 ± 0.09 | 3.06 ± 0.058 | 2.89 ± 0.08 | 3 ± 0.048

Row | Sequence | protein stability index (doa10∆) | protein stability index (ubr1∆) | protein stability index (pdr5∆) | protein stability index (san1∆)
28 | GTGKTMLVKAVANSTKA [RPT3] | 2.64 ± 0.19 | 1.31 ± 0.13 | 1.47 ± 0.1 | 2.02 ± 0.096
29 | GTGNNNKLNFIVDDKQE [DIB1] | 1.42 ± 0.073 | 1.61 ± 0.058 | 1.36 ± 0.047 | 1.57 ± 0.17
30 | GTIKKIEQFAMRRNSKI [POP5] | 2.79 ± 0.065 | 2.69 ± 0.039 | 2.73 ± 0.05 | 2.6 ± 0.059
31 | GTLKVILNLYSSAHLIR [YML103C/NUP188] | 2.07 ± 0.15 |  |  | 
32 | GTSVYLVDKRIDMLPML [DIS3] | 1.89 ± 0.18 | 2.12 ± 0.25 |  | 
33 | GVAHLLNRFNFQNTNTR [QCR2] | 2.69 ± 0.084 | 2.5 ± 0.062 | 2.58 ± 0.086 | 2.43 ± 0.15
34 | GVARIYASFNDTFVHVT [RPS14B] | 1.64 ± 0.082 | 2.05 ± 0.095 | 2 ± 0.085 | 1.92 ± 0.077
35 | GVARNFHFAIEQISNNS [SIN4] | 2.8 ± 0.1 | 2.97 ± 0.062 | 2.13 ± 0.075 | 2.08 ± 0.064
36 | GVATKDKFFTLSAENIE [SCL1] |  | 3.28 ± 0.25 |  | 
37 | GVDPTGSHLFSIHAHGS [PUP1] | 2.31 ± 0.1 | 2.06 ± 0.12 | 2.52 ± 0.15 | 2.5 ± 0.11
38 | GVLKPDITFFGEALPNK [SIR2] | 3.34 ± 0.08 | 3.35 ± 0.085 | 3.19 ± 0.083 | 3.16 ± 0.091
39 | GVLLPTRIKLLLTKNVS [RPS6A] | 1.43 ± 0.11 | 2.03 ± 0.11 | 1.49 ± 0.11 | 
40 | GVTIEFSTNVKDEIVLS [RPL9A] | 3.09 ± 0.23 | 3.18 ± 0.065 | 3.33 ± 0.13 | 3.3 ± 0.088
41 | GVWVRYDSRSGTHNMYK [RPL20A] |  |  | 2.3 ± 0.26 | 3.1 ± 0.29
42 | GYKMIPGAKPLQVGDVV [FAS1] | 2.43 ± 0.1 | 1.79 ± 0.14 | 2.44 ± 0.1 | 2.37 ± 0.1
43 | HAPAYHRSKKDQDQYLE [IRR1] |  |  | 3.56 ± 0.3 | 2.95 ± 0.19
44 | HAQLLLSDRITGNFIIP [PRP8] | 2.09 ± 0.061 | 2.71 ± 0.043 | 2.52 ± 0.071 | 2.37 ± 0.071
45 | HDYWNKIMQSISNKDVI [SRB4] | 1.85 ± 0.27 |  | 1.62 ± 0.23 | 1.33 ± 0.19
46 | HEIYGSMPLEQLIPIIL [SRB4] | 2.06 ± 0.06 | 1.72 ± 0.059 | 2.08 ± 0.068 | 2.37 ± 0.08
47 | HEVVQDDSFSLLRIQML [PCI8] | 2.7 ± 0.049 | 2.84 ± 0.036 | 2.96 ± 0.063 | 2.74 ± 0.047
48 | HFFKWIEFIVYHQLLSD [SRB8] | 1.45 ± 0.05 | 1.2 ± 0.041 | 1.3 ± 0.046 | 2.03 ± 0.08
49 | HFNGIRRLDALVEKVYA [ITC1] | 3.65 ± 0.11 | 2.95 ± 0.089 | 2.77 ± 0.068 | 1.94 ± 0.28
50 | HGHLGFLPRKRAASIRA [RPL3] | 2.1 ± 0.086 | 2.2 ± 0.077 | 2.44 ± 0.067 | 2.79 ± 0.055
51 | HGLILELQKIWQIEEAG [SRB5] | 2.86 ± 0.094 | 3.14 ± 0.043 | 2.93 ± 0.091 | 3.19 ± 0.048
52 | HGLKQLRDSLADKIVDE [NUT2] | 3.11 ± 0.083 | 2.3 ± 0.055 | 2.13 ± 0.077 | 1.52 ± 0.071
53 | HGMSVDPRHIQLLGDVM [RPO31] | 2.73 ± 0.057 | 2.98 ± 0.04 | 2.82 ± 0.062 | 2.85 ± 0.049
54 | HGSISPQEESVSPNISS [SIR3] | 2.82 ± 0.075 | 3.01 ± 0.034 | 3.06 ± 0.07 | 2.98 ± 0.046
